Key:
[1] = target: T1, LARP6C La-module (Arabidopsis thaliana, UniProt Q9LHL3 137-332); assay: ITC
T1 sequence: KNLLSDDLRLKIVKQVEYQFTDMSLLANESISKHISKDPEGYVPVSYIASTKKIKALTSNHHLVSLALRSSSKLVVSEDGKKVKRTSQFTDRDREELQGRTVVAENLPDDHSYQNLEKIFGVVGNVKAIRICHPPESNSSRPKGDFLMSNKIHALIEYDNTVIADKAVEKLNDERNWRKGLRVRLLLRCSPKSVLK

[2] = target: T1, LARP6C La-module; assay: EMSA
[3] = target: T1, LARP6C La-module; assay: EMSA; remark: listed apart in the source
[4] = target: T1, LARP6C La-module; assay: EMSA; remark: listed apart in the source

AAAAAAGAAGAAAAA (ssRNA) [A1]: no binding [1].

CCUCUCCCCCCCUCCCCCCUC (ssRNA) [B3]: no binding [1].

GAGAGAGGAGAAGAA (ssRNA) [A2]: no binding [1].

UUUUUUUUUUUUUUUUUUUU (ssRNA) [oligo(U20)]: binds [2].

Work on CUUCUUUCUUUCUUUUUUGUU (ssRNA) [B1] yielded a Kd [3] of 3.5 ± 0.3 µM, a Kd [4] of 0.8 ± 0.1 µM and a Kd [1] of 2.8 µM.

With UCUCUCUGUUUCUUAUUCAUC (ssRNA) [B2] the Kd [3] was 5.6 ± 0.2 µM, the Kd [4] was 1.9 ± 0.3 µM and the Kd [1] was 3.7 µM.
